Measurements from publication doi:10.1101/2025.07.08.663703, “Recruitment of Mre11 to recombination sites during meiosis” (bioRxiv, 2025).

Tests used:
[1] = test system: Mer2; test: Co-expression NiNTA pulldown of MBP-Mre11-C49 (prey) with HisSUMO-Mer2 (bait); format: binding, S. cerevisiae; conditions: co-expression in E. coli, anti-MBP elution/input signal normalized to wild type, at least seven independent samples
Source text: The vector for expression of ^MBPMre11-C49 and ^HisSUMOMer2 (pCCB1040) was based on a pET-Duet1 vector with the sequence coding for ^MBPMre11-C49 cloned within the first position (SacI site) and the sequence coding for ^HisSUMOMer2 cloned at the second position (XhoI site). The EQEK mutations and LLK mutations were introduced by PCR amplification of pCCB1040 with primers cb1561 and cb1562, and pp84 and pp85, followed by phosphorylation and self-ligation to yield plasmids pry59 and pry61, respectively.
Wild-type and mutant MBP-tagged Mre11-C49 and HisSUMO-tagged Mer2 were co-expressed in 50 mL of E. coli BL21 cultures and purified by affinity chromatography on Ni-NTA resin following a procedure similar to that described above. Briefly, cells were lysed by sonication and centrifuged at maximum speed for 30 mins at 4°C on a table-top centrifuge. A small fraction of the supernatant was collected as ‘Input’ and the remainder was incubated with 120 μL Ni-NTA resin, pre-equilibrated with wash buffer (25 mM HEPES pH 7.5, 20 mM imidazole, 0.1 mM DTT, 0.1 mM PMSF, 10% glycerol), for 1 hour on a rotating wheel at 4°C. The resin was washed twice with 2 ml in batch and five times with 2 ml on column before eluting with 250 μL of 500 mM imidazole in wash buffer. […]

[2] = test system: pUC19 plasmid; test: Gel shift assay of Mre11 and truncations; format: binding
Protocol: Proteins were diluted to their appropriate working concentrations in their respective storage buffers. […] Reactions were assembled at 30°C for 30 mins and resolved in a 1% agarose (SeaKem LE Agarose, Lonza) at 60 V for 120 mins at 4°C. Gels were stained with SYBR Gold Nucleic Acid Gel Stain (S11497, Invitrogen) for 40 mins and visualized with Amersham Typhoon biomolecular imager (Cytiva).

[3] = test system: plasmid DNA (pUC19); test: In vitro condensation of Mre11 truncations with plasmid DNA; conditions: eGFP-tagged protein, 200 nM Mre11 for ΔIDR and ΔC49
Protocol: Proteins were diluted to a 10× stock of their appropriate working concentrations in their respective storage buffers. Reactions were performed in a buffer containing 25 mM HEPES-HCl (pH 7.5), 2 mM DTT, 1 mg/ml BSA, 5% glycerol, 5 mM MgCl2, 5% PEG-3350, and NaCl. Considering the salt contributed by the protein dilution buffer, final concentration of NaCl in a reaction was adjusted to 120 mM. Unless specified otherwise, all reactions contained 400 nM ^Alexa488Mre11 or 100 nM ^eGFPMRX. A typical 20 μL binding reaction contained 2 μL protein of 10× stock of indicated concentration, 10 μL of 2× reaction buffer, and 150 ng of supercoiled pUC19 (5.7 nM). Typical reactions were assembled at 30°C for 30 mins with gentle mixing every 5 mins, unless mentioned otherwise. 5 μL was dropped onto a microscope slide and covered with a coverslip. All images were captured on a Zeiss Axio Observer with a 100×/1.4 NA oil immersion objective except for images provided in Figure 4G which were captured on Leica Stellaris DMI 8 confocal microscope with a 63x/1.2 NA water immersion objective. Images were analyzed with ImageJ using a custom-made script. […] Masked foci were counted and the intensity inside the focus mask was integrated. […] Data were analyzed using Graphpad Prism 10.4.0.

[4] = test system: Mer2; test: In vitro colocalization of Mre11 with Mer2 condensates; format: binding, S. cerevisiae; conditions: 200 nM Alexa594Mer2 and eGFPMre11, assembled separately on DNA then mixed 1:1 for 30 min
Protocol: Proteins were diluted to a 10× stock of their appropriate working concentrations in their respective storage buffers. […] Unless specified otherwise, all reactions contained 400 nM ^Alexa488Mre11 or 100 nM ^eGFPMRX. A typical 20 μL binding reaction contained 2 μL protein of 10× stock of indicated concentration, 10 μL of 2× reaction buffer, and 150 ng of supercoiled pUC19 (5.7 nM). Typical reactions were assembled at 30°C for 30 mins with gentle mixing every 5 mins, unless mentioned otherwise. 5 μL was dropped onto a microscope slide and covered with a coverslip. All images were captured on a Zeiss Axio Observer with a 100×/1.4 NA oil immersion objective except for images provided in Figure 4G which were captured on Leica Stellaris DMI 8 confocal microscope with a 63x/1.2 NA water immersion objective. Images were analyzed with ImageJ using a custom-made script. In brief, 129.24 × 129.24-μm (2048 × 2048-pixel) images were thresholded to mean intensity of the background plus three times the standard deviation of the background. Masked foci were counted and the intensity inside the focus mask was integrated. Data points represent averages of at least 8–10 images per sample. Data were analyzed using Graphpad Prism 10.4.0.

B1: Mer2-EQEK: Mer2 with residues E50, Q54, E57, and K61 mutated to alanine (protein)
chain: MVARGRTDEISTDVSEANSEHSLMITETSSPFRSIFSHSGKVANAGALEASDKAILAWAGALELESMELRENSDKLIKVLNENSKTLCKSLNKFNQLLEQDAATNGNVKTLIKDLASQIENQLDKVSTAMLSKGDEKKTKSDSSYRQVLVEEISRYNSKITRHVTNKQHETEKSMRCTQEMLFNVGSQLEDVHKVLLSLSKDMHSLQTRQTALEMAFREKADHAYDRPDVSLNGTTLLHDMDEAHDKQRKKSVPPPRMMVTRSMKRRRSSSPTLSTSQNHNSEDNDDASHRLKRAARTIIPWEELRPDTLESEL
modifications: left off: His, end not stated, kept | SUMO, end not stated, kept
notes: Mer2 with residues E50, Q54, E57, and K61 mutated to alanine
Question: How did the “interaction of Mre11-C49 and Mer2 in pulldown (anti-MBP immunoblot)” value [1] turn out when B1 was run?
Answer: strongly decreased the interaction between the two partners

B2: Mre11-ΔC49: Mre11 with C-terminal 49 residues (residues 644–692) deleted (protein, UniProt P32829 1-643, looked up, fragment)
chain: MDYPDPDTIRILITTDNHVGYNENDPITGDDSWKTFHEVMMLAKNNNVDMVVQSGDLFHVNKPSKKSLYQVLKTLRLCCMGDKPCELELLSDPSQVFHYDEFTNVNYEDPNFNISIPVFGISGNHDDASGDSLLCPMDILHATGLINHFGKVIESDKIKVVPLLFQKGSTKLALYGLAAVRDERLFRTFKDGGVTFEVPTMREGEWFNLMCVHQNHTGHTNTAFLPEQFLPDFLDMVIWGHEHECIPNLVHNPIKNFDVLQPGSSVATSLCEAEAQPKYVFILDIKYGEAPKMTPIPLETIRTFKMKSISLQDVPHLRPHDKDATSKYLIEQVEEMIRDANEETKQKLADDGEGDMVAELPKPLIRLRVDYSAPSNTQSPIDYQVENPRRFSNRFVGRVANGNNVVQFYKKRSPVTRSKKSGINGTSISDRDVEKLFSESGGELEVQTLVNDLLNKMQLSLLPEVGLNEAVKKFVDKDEKTALKEFISHEISNEVGILSTNEEFLRTDDAEEMKALIKQVKRANSVRPTPPKENDETNFAFNGNGLDSFRSSNREVRTGSPDITQSHVDNESRITHISQAESSKPTSKPKRVRTATKKKIPAFSDSTVISDAENELGDNNDAQDDVDIDENDIIMVSTDEEDA
Question: B2 was tested. Which “species of reduced electrophoretic mobility” value ([2]; 1 nM pUC19, higher protein concentration) did it give?
Answer: absent

Question: And the “condensate formation in vitro” value [3]?
Answer: strongly reduced Mre11 foci intensity

Question: What about the “colocalization with Mer2” value [4] of the same molecule?
Answer: strongly reduced colocalization as compared to wild-type Mre11

B3: Mre11 (protein)
chain: MDYPDPDTIRILITTDNHVGYNENDPITGDDSWKTFHEVMMLAKNNNVDMVVQSGDLFHVNKPSKKSLYQVLKTLRLCCMGDKPCELELLSDPSQVFHYDEFTNVNYEDPNFNISIPVFGISGNHDDASGDSLLCPMDILHATGLINHFGKVIESDKIKVVPLLFQKGSTKLALYGLAAVRDERLFRTFKDGGVTFEVPTMREGEWFNLMCVHQNHTGHTNTAFLPEQFLPDFLDMVIWGHEHECIPNLVHNPIKNFDVLQPGSSVATSLCEAEAQPKYVFILDIKYGEAPKMTPIPLETIRTFKMKSISLQDVPHLRPHDKDATSKYLIEQVEEMIRDANEETKQKLADDGEGDMVAELPKPLIRLRVDYSAPSNTQSPIDYQVENPRRFSNRFVGRVANGNNVVQFYKKRSPVTRSKKSGINGTSISDRDVEKLFSESGGELEVQTLVNDLLNKMQLSLLPEVGLNEAVKKFVDKDEKTALKEFISHEISNEVGILSTNEEFLRTDDAEEMKALIKQVKRANSVRPTPPKENDETNFAFNGNGLDSFRSSNREVRTGSPDITQSHVDNESRITHISQAESSKPTSKPKRVRTATKKKIPAFSDSTVISDAENELGDNNDAQDDVDIDENDIIMVSTDEEDASYGLLNGRKTKTKTRPAASTKTASRRGKGRASRTPKTDILGSLLAKKRK
modifications: left off: Gal4 activation domain (from the vector pGAD-C1), end not stated, kept
Question: Which “colocalization with Mer2” value [4] does the source give for B3 here?
Answer: nearly absolute colocalization

B4: Mre11^IDR: eGFP-tagged Mre11-IDR (524-677) (protein, UniProt P32829 524-677, looked up, fragment)
chain: NSVRPTPPKENDETNFAFNGNGLDSFRSSNREVRTGSPDITQSHVDNESRITHISQAESSKPTSKPKRVRTATKKKIPAFSDSTVISDAENELGDNNDAQDDVDIDENDIIMVSTDEEDASYGLLNGRKTKTKTRPAASTKTASRRGKGRASRT
modifications: eGFP tag
Question: With B4 as the molecule, how does the DNA binding ([2]; 1 nM pUC19, 25 mM HEPES pH 7.5, 5 mM EDTA, 100 mM NaCl, 30°C 30 min, two independent experiments for truncations) read?
Answer: reduced DNA binding as compared to the WT or Mre11^ΔIDR

Question: What about the “condensate formation in vitro” value [3] of the same molecule?
Answer: failed to form condensates
